Experimental findings from US11155586B2, “Cystine knot scaffold platform” (Genentech, Inc., priority 2015, dated 2021) are described below.

The assay concerns the target T1, hVEGF(8-109) (Homo sapiens, UniProt P15692).
T1 construct: hVEGF(8-109) or BSA were coated on 384-well MAXISORP™ immunoplates
T1 sequence (P15692 214-315): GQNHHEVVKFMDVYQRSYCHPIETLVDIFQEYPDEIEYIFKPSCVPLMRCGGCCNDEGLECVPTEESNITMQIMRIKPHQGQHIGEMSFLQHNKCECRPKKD
Kind of assay: Spot phage ELISA. In kind it is binding. On the procedure: After four rounds of binding selection, individual phage clones were picked and inoculated into 450 μl 2YT media containing 50 µg/ml Carbenecillin and M13-KO7 helper phage in 96-well blocks, which were grown at 37° C. overnight. The supernatant was analyzed with spot phage ELISA as follows: hVEGF(8-109) or BSA were coated on 384-well MAXISORP™ immunoplates and phage supernatant diluted (1:3) with PBT buffer was added to the wells. The plates were washed and bound phage was detected with anti-M13-HRP followed by TMB substrate. In these assays, phage binding to BSA alone was tested in parallel to assess background binding. Clones whose binding signals for hVEGF-A (8-109) were more than 3 times higher than to BSA (background) were considered positive. Positive clones were subjected to DNA sequence analysis.
(ELISA stands for enzyme-linked immunosorbent assay.)

Setting [1] is: loop 2 variants based on VEGF_CKP9.63 framework, Table 27.
The mark [2] stands for this setting: loop 2 variants based on 9.54 framework, Table 26.
Where [3] appears, read: VEGF_CKP9 Loop1/Loop5 affinity-matured variants, Table 24.

Positions of bridges follow the written chain, without caps; N, C: chain ends. Residues, ends and D or L forms follow the SMILES beside them.

For “GCDVMQPYWGCAGDELCLAGCVCHWYNSCG [VEGF_CKP9.63.30]”, the “S/N (signal to noise ratio as compared to BSA control)” value (Table 27) came out at 26.0. The compound also displayed an ELISA under setting [1] of 2.0.

Turning to “GCDVMQPYWGCDGDFDCLAGCVCHWYNSCG [VEGF_CKP9.63.39]”, the “S/N (signal to noise ratio as compared to BSA control)” value (Table 27) was 18.9. Besides, the ELISA under setting [1] worked out at 1.6.

Turning to “GCQLMQPFWGCKQDSDCLAGCVCHWYQSCG [VEGF_CKP9.L5.18]”, the “S/N (signal to noise ratio as compared to BSA control)” value (Table 23) came out at 20.4. The ELISA (VEGF_CKP9 Loop5 affinity-matured variants, Table 23) is recorded as 1.6.

For “GCDVMQPYWGCGLDEECLAGCVCHWYNSCG [VEGF_CKP9.63.37]”, where the note is “Table 27”, the “S/N (signal to noise ratio as compared to BSA control)” value came out at 8.6. The ELISA under setting [1] was 0.6.

Consider “GCDVMQPYWGCGVDLSCLAGCVCHWYNSCG [VEGF_CKP9.63.3]”, for which the “S/N (signal to noise ratio as compared to BSA control)” value (Table 27) came out at 20.7. The ELISA under setting [1] is listed as 1.7.

“GCDVMQPYWGCAGDFECLAGCVCHWYNSCG [VEGF_CKP9.63.42]”: the “S/N (signal to noise ratio as compared to BSA control)” value (Table 27) turned out to be 23.1. In addition, under setting [1], the ELISA came to 1.7.

Take “GCDVMQPYWGCGADLSCLAGCVCHWYNSCG [VEGF_CKP9.63.62]”: for the setting “Table 27”, the “S/N (signal to noise ratio as compared to BSA control)” value is 25.4. The ELISA under setting [1] stood at 1.8.

As for `CC[C@H](C)[C@@H]1NC(=O)[C@H](CC(=O)O)NC(=O)[C@H](Cc2c[nH]cn2)NC(=O)[C@@H]2CCCN2C(=O)[C@H](CCC(=O)O)NC(=O)[C@H](Cc2c[nH]c3ccccc23)NC(=O)[C@@H]2CCCN2C(=O)[C@H]([C@@H](C)O)NC(=O)[C@H](CCCNC(=N)N)NC(=O)[C@@H](NC(=O)CN)CSSC[C@@H]2NC(=O)CNC(=O)[C@H](C)NC(=O)[C@H](CC(C)C)NC(=O)[C@@H]3CSSC[C@@H](C(=O)NCC(=O)O)NC(=O)[C@H](Cc4ccccc4)NC(=O)CNC(=O)[C@H](CC(N)=O)NC(=O)[C@@H]4CCCN4C(=O)CNC(=O)[C@H](CSSC[C@H](NC(=O)[C@H]([C@@H](C)O)NC1=O)C(=O)N[C@@H](CCCCN)C(=O)N[C@@H](CCC(N)=O)C(=O)N[C@@H](CC(=O)O)C(=O)N[C@@H](CO)C(=O)N[C@@H](CC(=O)O)C(=O)N3)NC(=O)[C@H](C(C)C)NC2=O` [VEGF_CKP11] (H-GCRTPWEPHDITCKQDSDCLAGCVCGPNGFCG-OH; disulfide 2-23, 13-25, 19-31; N-terminus and C-terminus assumed), for the setting “Table 19”, the “S/N (signal to noise ratio as compared to BSA control)” value is recorded as 57.5. The ELISA (spot phage ELISA signal, EETI-II-based binders against hVEGF-A, Table 19) was 4.1.

Consider `CC[C@H](C)[C@@H]1NC(=O)[C@H](CC(N)=O)NC(=O)[C@@H](NC(=O)CN)CSSC[C@@H](C(=O)N[C@H](C(=O)N[C@H]2CSSC[C@@H](C(=O)NCC(=O)O)NC(=O)[C@H](CO)NC(=O)[C@H](CCC(N)=O)NC(=O)[C@H](Cc3ccc(O)cc3)NC(=O)[C@H](Cc3ccc(O)cc3)NC(=O)[C@H](CCC(N)=O)NC2=O)C(C)C)NC(=O)CNC(=O)[C@H](C)NC(=O)[C@H](CC(C)C)NC(=O)[C@@H]2CSSC[C@H](NC(=O)CNC(=O)[C@H](Cc3c[nH]c4ccccc34)NC(=O)[C@H](Cc3ccccc3)NC(=O)[C@@H]3CCCN3C(=O)[C@H](CC(C)C)NC(=O)[C@H](CCSC)NC1=O)C(=O)NCC(=O)N1CCC[C@H]1C(=O)N[C@@H](CC(=O)O)C(=O)N[C@@H](CC(C)C)C(=O)N[C@@H](CCC(N)=O)C(=O)N2` [VEGF_CKP9.54.59] (H-GCNIMLPFWGCGPDLQCLAGCVCQYYQSCG-OH; disulfide 2-21, 11-17, 23-29; N-terminus and C-terminus assumed), for which, where the note is “Table 26”, the “S/N (signal to noise ratio as compared to BSA control)” value turned out to be 35.4. Under setting [2], this compound had an ELISA of 2.3.

Regarding “GCDVMQPYWGCGRDLQCLAGCVCHWYNSCG [VEGF_CKP9.63.2]”, the “S/N (signal to noise ratio as compared to BSA control)” value (Table 27) was determined as 15.0. The ELISA under setting [1] was 2.0.

Turning to `CC[C@H](C)[C@@H]1NC(=O)[C@H](CCC(N)=O)NC(=O)[C@@H](NC(=O)CN)CSSC[C@@H](C(=O)N[C@H](C(=O)N[C@H]2CSSC[C@@H](C(=O)NCC(=O)O)NC(=O)[C@H](CO)NC(=O)[C@H](CC(N)=O)NC(=O)[C@H](Cc3ccc(O)cc3)NC(=O)[C@H](Cc3ccccc3)NC(=O)[C@H](Cc3c[nH]cn3)NC2=O)C(C)C)NC(=O)CNC(=O)[C@H](C)NC(=O)[C@H](CC(C)C)NC(=O)[C@@H]2CSSC[C@H](NC(=O)CNC(=O)[C@H](Cc3c[nH]c4ccccc34)NC(=O)[C@H](Cc3ccccc3)NC(=O)[C@@H]3CCCN3C(=O)[C@H](CCC(N)=O)NC(=O)[C@H](CO)NC1=O)C(=O)N[C@@H](CCCCN)C(=O)N[C@@H](CCC(N)=O)C(=O)N[C@@H](CC(=O)O)C(=O)N[C@@H](CO)C(=O)N[C@@H](CC(=O)O)C(=O)N2` [VEGF_CKP9.3] (H-GCQISQPFWGCKQDSDCLAGCVCHFYNSCG-OH; disulfide 2-21, 11-17, 23-29 (inferred); N-terminus and C-terminus assumed), for the setting “Table 24”, the “S/N (signal to noise ratio as compared to BSA control)” value is 24.5. The compound further registered an ELISA under setting [3] of 1.6.

For the compound “GCDVMQPYWGCGQDYNCLAGCVCHWYNSCG [VEGF_CKP9.63.56]”, the “S/N (signal to noise ratio as compared to BSA control)” value (Table 27) is on record as 8.4. For the same compound, the ELISA under setting [1] is reported as 1.8.

Regarding “GCDVMQPYWGCGVDMTCLAGCVCHWYNSCG [VEGF_CKP9.63.15]”, for the setting “Table 27”, the “S/N (signal to noise ratio as compared to BSA control)” value turned out to be 21.4. This compound also registered an ELISA under setting [1] of 1.5.

With “GCDVMQPYWGCGNSFECLAGCVCHWYNSCG [VEGF_CKP9.63.47]”, the “S/N (signal to noise ratio as compared to BSA control)” value (Table 27) turned out to be 20.7. The same compound gave an ELISA under setting [1] of 1.7.

In the case of “GCDVMQPYWGCDGDYQCLAGCVCHWYNSCG [VEGF_CKP9.63.18]”, the “S/N (signal to noise ratio as compared to BSA control)” value (Table 27) amounted to 17.3. The same compound returned an ELISA under setting [1] of 2.3.

Regarding “GCDVMQPYWGCGENLACLAGCVCHWYNSCG [VEGF_CKP9.63.54]”, for the setting “Table 27”, the “S/N (signal to noise ratio as compared to BSA control)” value worked out at 19.9. For the same compound, under setting [1], the ELISA is reported as 1.4.

Consider “GCDVMQPYWGCGNDVSCLAGCVCHWYNSCG [VEGF_CKP9.63.24]”, for which the “S/N (signal to noise ratio as compared to BSA control)” value (Table 27) is 20.4. Also, the ELISA under setting [1] was 1.6.

Take `CC[C@H](C)[C@@H]1NC(=O)[C@H](CC(N)=O)NC(=O)[C@@H](NC(=O)CN)CSSC[C@@H](C(=O)N[C@H](C(=O)N[C@H]2CSSC[C@@H](C(=O)NCC(=O)O)NC(=O)[C@H](CO)NC(=O)[C@H](CCC(N)=O)NC(=O)[C@H](Cc3ccc(O)cc3)NC(=O)[C@H](Cc3ccc(O)cc3)NC(=O)[C@H](CCC(N)=O)NC2=O)C(C)C)NC(=O)CNC(=O)[C@H](C)NC(=O)[C@H](CC(C)C)NC(=O)[C@@H]2CSSC[C@H](NC(=O)CNC(=O)[C@H](Cc3c[nH]c4ccccc34)NC(=O)[C@H](Cc3ccccc3)NC(=O)[C@@H]3CCCN3C(=O)[C@H](CC(C)C)NC(=O)[C@H](CCSC)NC1=O)C(=O)NCC(=O)N[C@@H](CC(C)C)C(=O)N[C@@H](CC(=O)O)C(=O)N[C@@H](Cc1ccc(O)cc1)C(=O)N[C@@H](CC(=O)O)C(=O)N2` [VEGF_CKP9.54.2] (H-GCNIMLPFWGCGLDYDCLAGCVCQYYQSCG-OH; disulfide 2-21, 11-17, 23-29; N-terminus and C-terminus assumed): the “S/N (signal to noise ratio as compared to BSA control)” value (Table 26) came out at 26. This compound displayed an ELISA under setting [2] of 0.1.

Turning to `CC(C)C[C@@H]1NC(=O)[C@@H]2CSSC[C@H](NC(=O)CNC(=O)[C@H](Cc3c[nH]c4ccccc34)NC(=O)[C@H](Cc3ccccc3)NC(=O)[C@@H]3CCCN3C(=O)[C@H](CCC(N)=O)NC(=O)[C@H]([C@@H](C)O)NC(=O)[C@H](CCCNC(=N)N)NC(=O)[C@H](CCC(N)=O)NC(=O)[C@@H](NC(=O)CN)CSSC[C@@H](C(=O)N[C@H](C(=O)N[C@H]3CSSC[C@@H](C(=O)NCC(=O)O)NC(=O)[C@H](CO)NC(=O)[C@H](CCC(N)=O)NC(=O)[C@H](Cc4ccc(O)cc4)NC(=O)[C@H](Cc4c[nH]c5ccccc45)NC(=O)[C@H](CCCNC(=N)N)NC3=O)C(C)C)NC(=O)CNC(=O)[C@H](C)NC1=O)C(=O)N[C@@H](CCCCN)C(=O)N[C@@H](CCC(N)=O)C(=O)N[C@@H](CC(=O)O)C(=O)N[C@@H](CO)C(=O)N[C@@H](CC(=O)O)C(=O)N2` [VEGF_CKP9.22] (H-GCQRTQPFWGCKQDSDCLAGCVCRWYQSCG-OH; disulfide 2-21, 11-17, 23-29 (inferred); N-terminus and C-terminus assumed), the “S/N (signal to noise ratio as compared to BSA control)” value (Table 24) was determined as 17.2. Also, the ELISA under setting [3] is 1.2.

Regarding “GCDVMQPYWGCGDDLECLAGCVCHWYNSCG [VEGF_CKP9.63.14]”, the “S/N (signal to noise ratio as compared to BSA control)” value (Table 27) amounted to 21.3. Moreover, under setting [1], the ELISA was found to be 1.5.

With `CC(C)C[C@@H]1NC(=O)[C@@H]2CSSC[C@H](NC(=O)CNC(=O)[C@H](Cc3c[nH]c4ccccc34)NC(=O)[C@H](Cc3ccccc3)NC(=O)[C@@H]3CCCN3C(=O)[C@H](CCC(N)=O)NC(=O)[C@H](CC(C)C)NC(=O)[C@H](C(C)C)NC(=O)[C@H](CC(=O)O)NC(=O)[C@@H](NC(=O)CN)CSSC[C@@H](C(=O)N[C@H](C(=O)N[C@H]3CSSC[C@@H](C(=O)NCC(=O)O)NC(=O)[C@H](CO)NC(=O)[C@H](CCC(N)=O)NC(=O)[C@H](Cc4ccc(O)cc4)NC(=O)[C@H](Cc4c[nH]c5ccccc45)NC(=O)[C@H](Cc4c[nH]cn4)NC3=O)C(C)C)NC(=O)CNC(=O)[C@H](C)NC1=O)C(=O)N[C@@H](CCCCN)C(=O)N[C@@H](CCC(N)=O)C(=O)N[C@@H](CC(=O)O)C(=O)N[C@@H](CO)C(=O)N[C@@H](CC(=O)O)C(=O)N2` [VEGF_CKP9.2] (H-GCDVLQPFWGCKQDSDCLAGCVCHWYQSCG-OH; disulfide 2-21, 11-17, 23-29 (inferred); N-terminus and C-terminus assumed), the “S/N (signal to noise ratio as compared to BSA control)” value (Table 24) is 31.1. Under setting [3], this compound returned an ELISA of 2.4.
